In the supplement of paper PMC10567573:

B1: SMTNL2 (parent)
chain: ETAAGKGKGEARARLKRSQSFGVA
B2: P2RY14 (parent)
chain: KKIFKSHLKSSRNSTSVKKKSSRN

Variants of: B1
Assay: protein stability index of a GFP-peptide fusion (GPS, HEK-293T) (PSI 1-6); higher = more stable
Conditions: c terminus: a fixed tail appended
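Also: lentivirally expressed fusions sorted by FACS into six bins by GFP to DsRed ratio, PSI derived from sequencing read proportions per bin multiplied by bin number.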

Protein stability index: each site, then its substitutions
R14: N 4.68; H 4.69; K 4.85; T 4.4; Q 4.66; F 4.18; W 4.03; P 5.19; A 3.79; L 4.29; Y 4.09; G 4.9; I 4.27; V 4.25; C 4.53; E 4.88; D 4.82; M 4.27; S 4.41
K8: N 4.8; D 5.01; E 4.89; V 4.62; F 4.29; W 3.87; L 4; Q 5.13; G 3.96; Y 4.2; C 4.17; H 4.44; I 4.12; A 5.13; R 4.38; T 4.08; S 4.43; M 4.66; P 4.54
K6: E 5.05; A 4.62; C 2.43; V 4.23; S 4.62; L 4.04; H 4.53; R 4.39; F 4.56; D 4.85; N 4.32; Y 3.9; M 3.87; T 4.78; P 4.59; G 3.58; I 4.54; W 3.79; Q 3.41
E10: R 4.53; M 4.44; V 4.27; T 4.38; C 3.51; W 3.4; G 4.49; D 4.38; S 4.46; L 3.79; P 4.27; I 3.96; N 4.21; Q 3.9; K 4.29; Y 3.35; F 3.7; A 4.33; H 4.44
A3: G 4.54; V 4.33; N 4.74; T 4.65; R 4.1; S 4.28; C 3.86; P 4.88; I 4.13; W 4.27; K 4.38; D 4.72; L 4.8; M 4.5; F 4.28; H 4.31; E 4.94; Q 4.56; Y 3.74
A11: I 3.69; D 4.8; K 4.74; H 4.49; Y 4.06; W 3.65; S 4.58; Q 4.19; N 4.56; L 4.5; P 4.46; G 4.61; R 4.73; T 4.62; V 4.02; E 4.69; M 4.19; F 3.71; C 3.96
G9: T 3.6; R 4.27; F 4.12; Q 4.51; L 3.6; Y 4.42; E 4.96; I 4.37; W 3.27; H 4.58; A 4.12; P 4.43; M 3.95; D 4.53; N 4.56; C 4.21; S 5.08; K 4.21; V 4.26
R12: E 5.03; F 3.9; S 4.92; K 4.88; V 4.83; T 3.76; C 4.38; M 3.94; Q 4.61; G 5.1; L 4.24; N 3.82; D 4.79; A 4.76; Y 4.28; H 4.45; I 3.95; P 4.67; W 3.14
T2: W 3.07; F 4.46; G 4.71; L 4.36; M 4.65; C 4.53; V 4.79; E 4.83; S 4.66; Y 3.83; Q 4.55; D 5.39; H 4.46; I 4.11; K 4.58; A 4.74; P 4.92; N 4.86
A4: W 3.98; N 4.13; Q 4.78; E 5.09; Y 4.77; K 4.81; I 4.24; S 4.02; P 4.54; R 4.46; T 4.67; C 4.46; G 4.29; L 3.81; V 3.99; H 4.3; M 4.71
G7: N 4.02; R 4.11; Q 4.46; A 4.28; V 4.01; D 4.75; I 4.17; C 3.48; F 3.87; S 4.22; E 4.71; M 3.73; W 3.03; P 4.08; K 4.62; L 4.26; H 4.18; T 4.48; Y 4.2
G5: N 4.58; D 3.84; E 4.79; L 4.56; Y 4.07; I 3.91; P 4.52; T 4.38; S 4.24; A 4.94; C 4.41; F 4.04; V 4.34; W 4.06; K 4.8; R 4.42; Q 4.39; H 4.77; M 3.93
L15: M 3.95; A 4.46; W 4.29; Q 4.91; V 4.76; C 4.24; N 4.89; Y 4.09; K 4.77; T 3.83; S 4.76; H 4.44; D 4.03; E 4.7; P 5.01; R 4.49; F 3.69; I 4.51; G 4.49
A13: R 4.05; K 4.86; V 3.82; H 4.83; F 3.9; I 4.54; W 3.67; N 4.55; Q 4.38; P 4.7; M 4.05; D 4.4; E 4.95; G 4.78; Y 4.3; C 4.38; L 4.11; T 4.61; S 4.67
E1: M 3.88; R 3.82; H 3.94; P 4.09; D 4.49; Y 3; T 3.72; K 3.82; L 4.18; V 3.33; G 4.54; N 4.35; F 3.21; S 4.48; A 3.91; Q 4.03; W 3.63; I 3.58; C 4.05
K16: A 4; S 4.35; I 3.35; N 4.46; Q 4.21; P 4.03; D 4.62; H 4; C 3.77; F 3.89; M 3.83; G 4.67; R 4.4; L 3.62; E 4.57

Variants of: B2
Assay: as above
Conditions: c terminus: a fixed tail appended

Protein stability index of substitutions, site by site:
R23: S 4.28; C 3.91; N 4.25; I 3.67; T 3.88; P 3.73; D 4.1; V 4.1; W 3.51; E 4.18; Y 4.07; F 3.42; H 3.57; K 4.2; G 3.94; Q 4.38; M 3.76; L 3.51
N24: L 4.12; K 3.81; Q 4.23; D 4.29; M 3.3; T 4.28; P 3.91; F 3.61; S 4.07; R 4.16; W 3.6; G 4.57; I 3.61; Y 3.46; V 4.11; C 3.55; A 4.14; E 3.91; H 4.38
